From article PMC5551684
Read-outs that look alike come from different tables or passages of the source.

What was measured:
[1] = biological target: T1, HSV-1 DNA polymerase catalytic subunit UL30 (exonuclease proficient) (Herpes simplex virus 1, UniProt P04293 1-1235); assay: competition
[2] = biological target: T1, HSV-1 DNA polymerase catalytic subunit …; assay: competition; remark: listed apart in the source

T1 sequence (P04293 whole entry): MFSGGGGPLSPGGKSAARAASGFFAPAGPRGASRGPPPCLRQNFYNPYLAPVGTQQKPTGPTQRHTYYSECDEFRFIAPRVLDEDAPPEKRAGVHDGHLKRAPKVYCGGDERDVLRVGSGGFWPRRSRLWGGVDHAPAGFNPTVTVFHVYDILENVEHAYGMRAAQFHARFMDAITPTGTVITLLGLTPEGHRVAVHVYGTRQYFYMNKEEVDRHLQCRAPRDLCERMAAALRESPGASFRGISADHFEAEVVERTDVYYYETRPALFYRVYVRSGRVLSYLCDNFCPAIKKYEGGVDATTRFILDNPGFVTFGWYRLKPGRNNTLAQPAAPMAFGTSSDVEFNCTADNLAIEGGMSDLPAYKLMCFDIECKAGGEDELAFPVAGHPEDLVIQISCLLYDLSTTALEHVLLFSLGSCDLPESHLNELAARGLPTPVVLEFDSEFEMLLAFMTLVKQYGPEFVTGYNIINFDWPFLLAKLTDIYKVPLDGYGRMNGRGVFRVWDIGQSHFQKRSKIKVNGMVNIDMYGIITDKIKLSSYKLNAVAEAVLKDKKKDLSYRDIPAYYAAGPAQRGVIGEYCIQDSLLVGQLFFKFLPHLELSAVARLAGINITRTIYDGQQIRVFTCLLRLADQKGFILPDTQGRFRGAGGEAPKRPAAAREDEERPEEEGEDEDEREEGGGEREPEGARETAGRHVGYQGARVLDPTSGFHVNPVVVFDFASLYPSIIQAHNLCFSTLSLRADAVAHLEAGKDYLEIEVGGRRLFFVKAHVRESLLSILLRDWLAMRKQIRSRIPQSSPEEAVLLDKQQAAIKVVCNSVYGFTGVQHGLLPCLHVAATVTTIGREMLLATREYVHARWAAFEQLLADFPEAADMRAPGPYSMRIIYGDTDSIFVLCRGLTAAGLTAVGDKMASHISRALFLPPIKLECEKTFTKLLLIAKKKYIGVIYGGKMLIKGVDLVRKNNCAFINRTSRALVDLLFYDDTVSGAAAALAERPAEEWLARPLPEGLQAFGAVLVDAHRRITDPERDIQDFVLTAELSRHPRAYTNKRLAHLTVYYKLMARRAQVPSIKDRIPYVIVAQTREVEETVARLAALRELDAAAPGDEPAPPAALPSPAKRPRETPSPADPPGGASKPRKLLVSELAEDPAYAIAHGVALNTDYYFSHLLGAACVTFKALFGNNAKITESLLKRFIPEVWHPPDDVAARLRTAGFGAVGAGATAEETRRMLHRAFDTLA

| Binder | binding result [1] | binding result [2] |
| --- | --- | --- |
| GCTCTGTTCCGGTTTG (ssDNA, 2',3'-dideoxyG at 3' end, position 16 (printed D*)) [DNA16ddss] | binds |  |
| DNA16ACV (dsDNA, acyclovir monophosphate (acyclic G) at 3' end of primer, position 16 (printed A*)) DNA 1: GCTCTGTTCCGGTTTG DNA 2: CATGATTAGATGAAACACAAACCGGAACAGAGC |  | binds |
| DNA16dd (dsDNA, 2',3'-dideoxyG at 3' end of primer, position 16 (printed D*)) DNA 1: GCTCTGTTCCGGTTTG DNA 2: CATGATTAGATGAAACACAAACCGGAACAGAGC |  | binds |
| DNA16GCV (dsDNA, ganciclovir monophosphate (acyclic G) at 3' end of primer, position 16 (printed G*)) DNA 1: GCTCTGTTCCGGTTTG DNA 2: CATGATTAGATGAAACACAAACCGGAACAGAGC |  | binds |
| GCTCTGTTCCGGTTTG (ssDNA, acyclovir monophosphate (acyclic G) at 3' end, position 16 (printed A*)) [DNA16ACVss] | binds |  |
